Laboratory results: the nanobody polyreactivity screen of Harvey et al. (2022)

Assay: yeast display, Sf9 membrane polyspecificity reagent, FACS + sequencing; frameworks hold sequencing errors
Procedure, shortened: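 Galactose induction of a Saccharomyces cerevisiae BJ5465 synthetic nanobody display library ran 36–48 hours. The cells were then stained for 1 hour at 4 °C with 10% biotinylated, detergent-solubilized Sf9 membrane reagent, pulled down on streptavidin microbeads and FACS-sorted into low and high (top ~1%) gates on expression and reagent-binding fluorescence. Labels for polyreactivity follow the gate of origin.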

Sequence | polyreactivity (PSR sort gate)
QVQLVESGGGLVQAGGSLRLSCAASGRTFNPYAMGWYRQAPGKERELVAVISYIGGSTYADSVKGRFTISRDNEKNTVYLQMNSLKPEDTAVYYCNRATFGQWGCDYWGQGTQVTVSS | high polyreactivity
QVQLVESGGGVVQAGRSLRLSCAASGRLFYEYAMGWYRQAPGKEREFVAAISYSGSRTYYADSVKGRFTISRDNAKYTVYLQLNCLIPEDTAVYYCAAVVAFGTGTFYYWGQGRQVTVSS | high polyreactivity
QVQLVESGGGLVQAGGSLRLSCAASGLIFWRYDMGWYRQAPGKERELVAVITSGGNTYYADAVKGRFRISRDNAKNTVYLQMNSLKPEDTAVYYCNADTWRDDYDYWGQGTQVTVAS | low polyreactivity
QVQLVESGGGLVQAGGSLRLSCAASGLTFWAYFMGWYRQAPGKEREFVAAITLSSGSTYYADSVKGRFTISRDNEKNTVYLQMNSLKPEYTAVYYCAATRDYGYWMYSWGQGTQGTVSS | high polyreactivity
QVQLVDSGGCLVQAGGSLRLSCAASGFIFNFYAMGWYRQAPRQQREFVAAISTRGGSTYYADSVKGRFTISRDNAKNTVFLQMKSLKPEDTAVYYCAARRFWGSRRLDYWGQCTQVTVSS | high polyreactivity
QVQLVESGGGLVQAGGRLRLSCAATGSIFRGYAMGWYRQAPGKERELVAAISYRGGSTYYADSVKGRFTISRDNAKNTVYLQMNSLKPEDTAVDYWAAVYSHYWWFDYWGQGTQVTVSS | high polyreactivity
QVQLVESGGGLVQAGGSLRLSCAASGSTFIYYTMGWYRQAPGKERELVAAIPSSGGSTYYADSVKGRFTISRDNAKNTVYLQMNSLKPEDTAVYYCADDGTYIKFAKLYRRYDYWGQGTQVTVSS | low polyreactivity
QVQLVESGGGLVQAGGSLRLSCAASGLTFDPYAMGWYRQAPGKEREFVAAINSDDGSTYYADSVKGRFTISRDNAKNTVYLQMNSLKPEDTAVYYCNADLAHFLWYQYDYWGQGTQVTVSS | low polyreactivity
QDQLVESWVGLVQAGGSLRLSYAASGYIIKYNAMGRYRHAPRKERELVAAISSIGGRTYYADSVKARFTISRDNAKNNVYLQINILKPEDTAVYYFNAVGGRYTGWRYDYWGQGTQVTVSS | high polyreactivity
QVQLVESGGGLVQAGGSLRLSCAASGIIFPHYAMGWYRQEPGKERELVAAITRSGGSTYYADSVKGRFTISRDNAKNTVYLQMNSLKPEDTAVYYCAAKRPVQSGGYNYWGQGTQVTVSS | high polyreactivity
QVQLVESGGGLVQAGGSLRLSCAASGRIFTRYAMGWYRQAPGKERELVAVITRSGGSTYYADSVKGRFTISRDNAKNTVYLQMTSLKPEDTAVYYCAAKYYGEMYYWGQGTQVTVSS | low polyreactivity
QVQLEESGGGIVQAGGSLRLSCAASGSTFVLNAMGWYRKAPGKERELVAAITRDGRTYYADSVKGRFTISRDNAKNTVYLQMNSLKPEDTAVYYCARPARYSYGDGYWGQGTLVTVSS | low polyreactivity
QVQLVESGGGLVQAGGSLRLICAASGSTFGPYSMGWYRQAPGKERELVAAIDQISSSTHYADSVKGRFTISRDNAKNTVYLQMNSLKPEDTAVYYCNADEFRYGYFPHYDYWGQGTQVTVSS | low polyreactivity
QVQLVESGGGLVQAGGSLRLSCAASGSIFSENTMGWYRQAPGTKREWVADITSGGSTNYADSVKGRFTISRDNAKNTVYLQMNSLKPEDTAVYYCAVPGRLYAHPQGYDYWGQGTQVTVSS | low polyreactivity
QVQLVESAAGLVQAGGSLRLSCAASGSTFAGNAMGWYRQAPGKERELVAAIDSSTGSTYYADSVKGRFTISRDNAKNTVYLQMNSLKPEDTAVYYCNKTSFLVKLDYWGQGTQVTVSS | low polyreactivity
QVQLVESGGGLVQAGGSLRLSCAASGRTFPRYAMGWYRPAAGKVWELVAAISVRAGITYYADSVKGRFTISRDNAKNTVYFQMNSLKPEDTAVYYCAKDHWTTSYDEGDYWGQGTQETVSS | low polyreactivity
QVQLVESAGGIVQAGGSLRLSCDASGSIFYYYAMGWYRQAPGKERELVADISYRGSRTFYADSVKGLFTISRDIAKNTVYLQMNSLKPEDTEVYYCAAAYSRYTSRFYYWGQGTQVTVSS | high polyreactivity
QVQLVESGGGLVQAGGSLRLSCAASGSTFNWNAMGWYRQAPGKERELVAAISRSGGRTSYADSVKGRFTISRDNAKNTVYLQMNSLKPEDTAVYYCAAEKVGTRPSRDYDYWGQGTQVTVSS | high polyreactivity
QVQLVESWGGLVQAGGSLRLSCAASGFTLTPYAMGWYRQAPGKERELVAASRWSGGSTYYADSVKGRFTISRDNAKNTVYLQMNSLKPEDTAVYYCAARYAYRPVNGYKYWGQGTQVTVSS | high polyreactivity
QVQLVESGGGLVQAGGSLRLSCAASGITFCSYTMGWYRQAPGKERELVAVISSGGSTNYADSVKGRFTISRDNAKNTVYLQMNSLKPEDTAVYYCAADFRWWYTGFDYWGQGTQVTVSS | high polyreactivity
QVQLVESGGGLVQAGGSLRLSCAASGNTFPIYAMGWSRQAPGKERELVAAIRSSTGSTYYADSVKGRFTISRDYAKNTVYLQMNSLKPEATAVYYCAAAGVTSVVYGTRYYYWGQGTQVTVSS | high polyreactivity
